Test results: PMC12148185, “Combining CD3/GD2 bispecific T cell engager with human Vγ9Vδ2 T cells facilitates neuroblastoma cell targeting and killing in vitro” (PLOS One, 2025)

Target: T1, recombinant CD3 epsilon (Homo sapiens (species ; human …, UniProt P07766)
T1 construct: recombinant CD3 epsilon (Sigma-Aldrich); No catalogue number is printed; source: bought: Sigma-Aldrich
Test: ELISA; indirect ELISA; 0.5 µg recombinant CD3 epsilon coated overnight at 4 °C; 500 µg/ml protein of total cell lysate, periplasmic or cytoplasmic fraction with the scFv, 37 °C 1 h; detected with HRP-conjugated anti-E tag, A405; signals of the negative protein and of BSA-coated wells subtracted
Details: one partner purified

T1 sequence (P07766 23-126): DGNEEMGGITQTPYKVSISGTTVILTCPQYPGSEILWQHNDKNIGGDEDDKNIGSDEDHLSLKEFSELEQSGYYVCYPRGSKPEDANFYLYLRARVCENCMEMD

B1: human scFv CD3 clone 18 (scFv, V domains shown)
VH: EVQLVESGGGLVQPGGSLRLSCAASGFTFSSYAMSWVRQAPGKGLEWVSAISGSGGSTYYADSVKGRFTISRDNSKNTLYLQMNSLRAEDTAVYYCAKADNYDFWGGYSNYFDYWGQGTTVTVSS
VL: EIVMTQSPATLSVSPGERATLSCTASQSVRNNLAWYQQKPGQPPRLLIYGASTRATGIPARFSGSRSGTEFTLTISSLQSEDFGVYYCQQYNNWPRTFGQGTKVEIK
notes: selected from a naive human scFv M13 phage library; About 28 kDa on Western blot; source: E. coli HB2151, IPTG-induced; total cell lysate, periplasmic fraction or cytoplasmic fraction
binding result: binds
